# Laboratory results: patent publication US20130202609A1 (Novartis, published 2013)
# T1: 150 kDa C-terminal fragment of wild-type GAS57 (Streptococcus pyogenes (M1 SF370))
# T1 construct: also called 150 kDa fragment; 150.5 kDa fragment
# T1 chain: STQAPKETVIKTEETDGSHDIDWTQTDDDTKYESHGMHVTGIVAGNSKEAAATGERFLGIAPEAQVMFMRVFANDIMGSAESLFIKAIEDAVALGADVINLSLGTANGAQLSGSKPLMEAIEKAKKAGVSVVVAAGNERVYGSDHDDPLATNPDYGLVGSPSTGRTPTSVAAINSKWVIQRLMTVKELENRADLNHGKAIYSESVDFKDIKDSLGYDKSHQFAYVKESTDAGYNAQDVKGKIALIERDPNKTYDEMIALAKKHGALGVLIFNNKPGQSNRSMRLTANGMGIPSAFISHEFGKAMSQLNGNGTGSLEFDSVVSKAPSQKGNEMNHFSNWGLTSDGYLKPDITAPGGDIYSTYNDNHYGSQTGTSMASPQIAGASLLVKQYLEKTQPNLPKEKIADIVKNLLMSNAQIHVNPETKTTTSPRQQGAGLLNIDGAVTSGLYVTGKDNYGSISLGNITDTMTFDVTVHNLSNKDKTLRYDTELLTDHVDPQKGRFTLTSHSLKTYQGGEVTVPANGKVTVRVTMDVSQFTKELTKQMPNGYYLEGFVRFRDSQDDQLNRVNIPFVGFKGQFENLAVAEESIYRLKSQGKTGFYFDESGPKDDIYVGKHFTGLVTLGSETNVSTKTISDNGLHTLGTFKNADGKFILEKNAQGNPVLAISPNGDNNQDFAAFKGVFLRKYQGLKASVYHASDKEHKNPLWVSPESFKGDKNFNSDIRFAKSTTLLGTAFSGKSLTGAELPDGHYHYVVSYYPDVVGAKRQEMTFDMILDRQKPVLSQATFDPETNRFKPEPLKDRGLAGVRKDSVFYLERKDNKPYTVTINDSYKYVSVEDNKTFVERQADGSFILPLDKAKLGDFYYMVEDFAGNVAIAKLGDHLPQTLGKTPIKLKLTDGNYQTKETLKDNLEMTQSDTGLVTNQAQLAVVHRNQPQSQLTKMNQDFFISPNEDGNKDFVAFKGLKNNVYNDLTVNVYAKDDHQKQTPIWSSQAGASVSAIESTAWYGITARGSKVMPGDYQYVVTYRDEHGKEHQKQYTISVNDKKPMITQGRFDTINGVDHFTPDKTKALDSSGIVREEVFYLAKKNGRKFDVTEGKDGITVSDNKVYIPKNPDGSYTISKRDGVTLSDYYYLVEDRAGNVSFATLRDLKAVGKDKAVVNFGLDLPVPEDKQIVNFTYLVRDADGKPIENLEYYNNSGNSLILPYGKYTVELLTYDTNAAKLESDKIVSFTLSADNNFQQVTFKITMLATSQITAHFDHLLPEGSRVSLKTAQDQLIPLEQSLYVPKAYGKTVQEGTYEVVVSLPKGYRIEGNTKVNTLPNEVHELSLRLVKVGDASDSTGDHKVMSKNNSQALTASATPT
# Molecular target: T1, 150 kDa C-terminal fragment of …
# Assay: co-purification on Ni-chelating affinity column and gel filtration; SDS-PAGE
binder,measurement,value
"23 kDa N-terminal fragment of wild-type GAS57 (other, also called 23 kDa fragment; 23.4 kDa fragment) ADELSTMSEPTITNHAQQQAQHLTNTELSSAESKSQDTSQITLKTNREKEQSQDLVSEPTTTELADTDAASMANTGSDATQKSASLPPVNTDVHDWVKTKGAWDKGYKGQGKVVAVIDTGIDPAHQSMRISDVSTAKVKSKEDMLARQKAAGINYGSWINDKVVFAHNYVENSDNIKENQFEDFDEDWENFEFDAEAEPKAIKKHKIYRPQ",binding result,binds
